The source of these data is PMC2443653.

This series deals with rPrP23-231 (full-length mature recombinant prion protein) (mouse, UniProt P04925 23-231). In words: fluorescence anisotropy. On the technique in general: In fluorescence polarisation assays a small probe gives low polarisation when free and higher when bound to something large.
Chain of rPrP23-231 (full-length mature recombinant prion protein) (P04925 23-231): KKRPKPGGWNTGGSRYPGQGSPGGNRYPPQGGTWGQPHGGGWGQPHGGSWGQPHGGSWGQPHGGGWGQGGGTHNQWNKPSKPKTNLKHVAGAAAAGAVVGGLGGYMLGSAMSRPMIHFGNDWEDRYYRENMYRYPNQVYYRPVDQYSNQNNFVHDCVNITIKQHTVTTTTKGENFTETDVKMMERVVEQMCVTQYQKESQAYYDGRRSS

Take AAACAUGGGUUCCCAUGU (structured_RNA) [opRNA]: the binding result is listed as “binds”.
